The values that follow come from patent publication US20240084042A1 (Genentech, published 2024).

Numbering of substitutions follows the chain as printed. Names may count otherwise. A value given as a limit tells only on which side of the number the result lay.

As a reminder, the Kd is the concentration at which binding is half-saturated. As usually defined, the koff is the rate constant with which the complex falls apart. The kon is the rate constant with which the complex forms.

Assay [1] has as its target human KLK7 (SEQ ID NO: 4 plus a C-terminal FLAG tag) (human, UniProt P49862 30-253). Kind of assay: cell-based or functional assay.
The target of assay [2] is T1, human KLK5 (human, UniProt Q9Y337 67-293).
T1 sequence: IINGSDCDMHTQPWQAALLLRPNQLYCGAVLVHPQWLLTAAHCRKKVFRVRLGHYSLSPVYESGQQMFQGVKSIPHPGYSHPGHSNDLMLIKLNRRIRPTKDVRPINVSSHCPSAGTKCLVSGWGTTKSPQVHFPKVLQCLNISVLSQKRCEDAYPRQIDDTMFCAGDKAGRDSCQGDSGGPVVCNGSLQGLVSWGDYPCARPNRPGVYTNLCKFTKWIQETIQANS
Nature of the assay: cell-based or functional assay.

Assay [3] deals with T1, human KLK5. Nature of the assay: kinetics of bispecific antibody, method not restated (SPR implied).
The target in assay [4] is T2, cynomolgus monkey KLK5 (cynomolgus monkey, UniProt Q9Y337 67-293 (human entry)).
T2 construct: also called cyno KLK5
T2 chain: T1 sequence with M9E, R21G, A29G, V71I, R98H, P99S, K128R, K169E, R202K
Described as above.

Assay [5] has as its target cyano KLK7 (SEQ ID NO: 6 plus a C-terminal FLAG tag) (cynomolgus monkey, UniProt P49862 30-253 (human entry)). Nature of the assay: cell-based or functional assay.
Assay [6] addresses T2, cynomolgus monkey KLK5. Kind of assay: cell-based or functional assay.
For assay [7], the target named is T3, human KLK7 (human, UniProt P49862 30-253).
T3 construct: Antigen injected in SPR; also called hu KLK7; huKLK7
Nature of the assay: kinetics of bispecific antibody, method not restated (SPR implied).

For another assay, the target named is T4, cynomolgus monkey KLK7 (cynomolgus monkey, UniProt P49862 30-253 (human entry)).
T4 construct: Antigen injected in SPR; also called Cy KLK7; cyno KLK7
The assay is described as above.

The target of assay [8] is T3, human KLK7. Nature of the assay: SPR BIAcore 8K, antibody on protein A chip, 37 C. The method, then:
The binding affinity of the humanized antibodies was determined by BIAcore™ 8K SPR system. For kinetics measurements, antibodies were captured on research grade protein A chip (GE Healthcare) to achieve approximately 300 RU. Ten-fold serial dilutions of human KLK7 were injected in HBS-P buffer at 37° C. with a flow rate of 100 μL/min. Association rates (ka) and dissociation rates (kd) were calculated using a 1:1 Langmuir binding model (BIAcore Insight Evaluation Software version 2.0). The equilibrium dissociation constant (KD) was calculated as the ratio kd/ka.
(In general: In SPR one partner is held on a chip, and binding of the other changes the refractive index at the surface.)

Sequence of cyano KLK7 (SEQ ID NO: 6 plus a C-terminal FLAG tag) (P49862 other isoform, or with tags, fused parts or gaps): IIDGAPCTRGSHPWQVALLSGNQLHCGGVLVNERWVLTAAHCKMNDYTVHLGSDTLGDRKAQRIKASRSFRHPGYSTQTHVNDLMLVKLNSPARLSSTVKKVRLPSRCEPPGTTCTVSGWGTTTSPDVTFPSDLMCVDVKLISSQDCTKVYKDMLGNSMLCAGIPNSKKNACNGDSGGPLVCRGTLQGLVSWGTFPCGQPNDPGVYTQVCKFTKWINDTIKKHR
T4 sequence (P49862 other isoform, or with tags, fused parts or gaps): as above
Sequence of human KLK7 (SEQ ID NO: 4 plus a C-terminal FLAG tag) (P49862 30-253): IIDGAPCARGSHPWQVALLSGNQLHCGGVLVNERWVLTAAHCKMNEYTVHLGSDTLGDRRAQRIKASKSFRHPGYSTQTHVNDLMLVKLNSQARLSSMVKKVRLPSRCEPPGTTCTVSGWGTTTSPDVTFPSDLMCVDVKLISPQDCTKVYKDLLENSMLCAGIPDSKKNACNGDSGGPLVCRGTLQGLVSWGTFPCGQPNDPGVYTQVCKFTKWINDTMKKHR
T3 sequence (P49862 30-253): as above

B1: hu.10C5VY.hu14H11c.L2H11 WT (bispecific antibody, human IgG1, kappa, N297G)
heavy 1: not shown
light 1: DIQMTQSPSSLSASVGDRVTITCLASEDIASSVSWYQKKPGKAPKLLIYGASNLESGVPSRFSGSGSGTDYTLTISSLQPEDFATYYCLGGYSYSSTGTAFGGGTKVEIKRTVAAPSVFIFPPSDEQLKSGTASVECLLNNFYPREAKVQWKVDNALQSGNSQESVTEQDSKDSTYSLSSTLTLSKADYEKHKVYACEVTHQGLSSPVTKSFNRGEC
heavy 2: EVQLVESGGGLVQPGGSLRLSCAASGFSLSSYGVTWVRKAPGKGLEWIGYITSVYGVSYYASWAKSRSTISRDTSKNTVYLQMGSLRAEDMAVYYCARENPDYGYAYDAWGQGTTVTVSSASTKGPSVFPLAPSSKSTSGGTAALGCLVKDYFPEPVTVSWNSGALTSGVHTFPAVLQSSGLYSLESVVTVPSSSLGTQTYICNVNHKPSNTKVDKKVEPKSCDKTHTCPPCPAPELLGGPSVFLFPPKPKDTLMISRTPEVTCVVVDVSHEDPEVKFNWYVDGVEVHNAKTKPREEQYGSTYRVVSVLTVLHQDWLNGKEYKCKVSNKALPAPIEKTISKAKGQPREPQVYTLPPSREEMTKNQVSLSCAVKGFYPSDIAVEWESNGQPENNYKTTPPVLDSDGSFFLVSKLTVDKSRWQQGNVFSCSVMHEALHNHYTQKSLSLSPGK
light 2: AIRMTQSPSSFSASTGDRVTITCQASESISNELSWYQEKPGKAPKLLIYYASTLASGVPSRFSGSGSGTDFTLTISSLQPEDFATYYCAQGYGSSGVENVFGGGTKVEIKRTVAAPSVFIFPPSDEQLKSGTASVKCLLNNFYPREAKVQWKVDNALQSGNSQESVTEQDSKDSTYSLSSTLTLSKADYEKHKVYACEVTHQGLSSPVTKSFNRGEC
notes: hIgG1 N297G knob-in-hole bispecific with Q39E/Q38K, Q39K/Q38E, S183K/V133E and S183E/V133K pairing mutations; also called anti-KLK5/KLK7 bispecific antibody without M428L/N434S
With B1, the “IC50, KLK7 direct functional assay (Mca-RPKPVE-Nval-WRK(Dnp)), bivalency corrected” value (“IC50, KLK7 direct functional assay” below) in [1] and in assay [5] was 0.37 nM in each case. Besides, the “IC50, KLK5 direct functional assay (Boc-Val-Pro-Arg-AMC), bivalency corrected” value (“IC50, KLK5 direct functional assay” below) was found to be 0.67 nM with human KLK5 [2] and 0.73 nM with cynomolgus monkey KLK5 [6]. Moreover, the Kd is 0.0008 nM in the assay with human KLK5 [3], 0.019 nM with cynomolgus monkey KLK5 [4], less than 0.001 nM with human KLK7 [7] and 0.0023 nM with cynomolgus monkey KLK7. Moreover, the koff with human KLK5 [3] was 1.5e-05 s⁻¹; with cynomolgus monkey KLK5 [4], 0.00019 s⁻¹; in the assay with human KLK7 [7] it was less than 1e-06 s⁻¹; with cynomolgus monkey KLK7, 9e-05 s⁻¹. The kon is 2.1e+07 M⁻¹ s⁻¹ with human KLK5 [3], 1e+07 M⁻¹ s⁻¹ with cynomolgus monkey KLK5 [4], 5.8e+07 M⁻¹ s⁻¹ with human KLK7 [7] and 4e+07 M⁻¹ s⁻¹ with cynomolgus monkey KLK7.

B2: hu.10C5VY.hu14H11c.L2H11 LS (bispecific antibody, human IgG1, kappa, N297G)
heavy 1: EQQLVESGGGLIQPGGSLRLSCAASGFSFSSSYYMSWVREAPGKGLEWVSSIYAGSSGAPYYAGWAKGRFTISRDNSKNTLYLQMNSLRAEDTAVYYCAREGFAETGGYGYAAYFNLWGPGTLVTVSSASTKGPSVFPLAPSSKSTSGGTAALGCLVKDYFPEPVTVSWNSGALTSGVHTFPAVLQSSGLYSLKSVVTVPSSSLGTQTYICNVNHKPSNTKVDKKVEPKSCDKTHTCPPCPAPELLGGPSVFLFPPKPKDTLMISRTPEVTCVVVDVSHEDPEVKFNWYVDGVEVHNAKTKPREEQYGSTYRVVSVLTVLHQDWLNGKEYKCKVSNKALPAPIEKTISKAKGQPREPQVYTLPPSREEMTKNQVSLWCLVKGFYPSDIAVEWESNGQPENNYKTTPPVLDSDGSFFLYSKLTVDKSRWQQGNVFSCSVLHEALHSHYTQKSLSLSPGK
light 1: B1 light 1
heavy 2: B1 heavy 2 with M431L, N437S
light 2: B1 light 2
notes: hIgG1 N297G knob-in-hole bispecific with M428L/N434S and the chain pairing mutations; also called anti-KLK5/KLK7 bispecific antibody with M428L/N434S (LS)
In the case of B2, the “IC50, KLK7 direct functional assay” value in assay [1] was found to be 0.34 nM; in assay [5], 0.36 nM. Further, the “IC50, KLK5 direct functional assay” value in the assay with human KLK5 [2] was determined as 0.54 nM; in the assay with cynomolgus monkey KLK5 [6], 0.58 nM. For the same molecule, the dissociation constant (Kd) in the assay with human KLK5 [3] was found to be 0.0015 nM; with cynomolgus monkey KLK5 [4], 0.016 nM; with human KLK7 [7] it was 0.00024 nM; with cynomolgus monkey KLK7, 0.003 nM. For the same molecule, the koff is 1.97e-05 s⁻¹ in the assay with human KLK5 [3], 0.00018 s⁻¹ with cynomolgus monkey KLK5 [4], 1.4e-05 s⁻¹ with human KLK7 [7] and 7e-05 s⁻¹ with cynomolgus monkey KLK7. Further, the kon was found to be 1.5e+07 M⁻¹ s⁻¹ with human KLK5 [3], 1.11e+07 M⁻¹ s⁻¹ with cynomolgus monkey KLK5 [4], 5.7e+07 M⁻¹ s⁻¹ with human KLK7 [7] and 3e+07 M⁻¹ s⁻¹ in the assay with cynomolgus monkey KLK7.

B3: chimeric rb.14H11c-hIgG1 (antibody, V domains shown)
VH: QSLEESGGDLVKPGASLTLTCTASGFSFSSSYYMSWVRQAPGKGLEWIASIYAGSSGAPYYAGWAKGRFTISKTSSTAVTLQMSSLTAADTATYFCAREGFAETGGYGYAAYFNLWGPGTLVTVSS
VL: AIEMTQSPPSLSASVGETVRIRCLASEDIASSVSWYQQKPGKPPTLLIYGASNLESGVPPRFTGSGSGTDYTLTIGGVQAEDAATYYCLGGYSYSSTGTAFGAGTKVEIK
notes: Rabbit variable domains (14H11 with C35a to S in VH) on human IgG1; also called Chimeric 14H11c
As for B3, in the assay with human KLK7 [8], the Kd is less than 0.001 nM, the koff was less than 1e-06 s⁻¹ and the kon was 2.16e+07 M⁻¹ s⁻¹.

B4: hu.14H11c.L2H11-hIgG1 (antibody, V domains shown)
VH: EQQLVESGGGLIQPGGSLRLSCAASGFSFSSSYYMSWVRQAPGKGLEWVSSIYAGSSGAPYYAGWAKGRFTISRDNSKNTLYLQMNSLRAEDTAVYYCAREGFAETGGYGYAAYFNLWGPGTLVTVSS
VL: DIQMTQSPSSLSASVGDRVTITCLASEDIASSVSWYQQKPGKAPKLLIYGASNLESGVPSRFSGSGSGTDYTLTISSLQPEDFATYYCLGGYSYSSTGTAFGGGTKVEIK
notes: Humanized anti-KLK7 antibody, human IgG1
As to B4, in the assay with human KLK7 [8], binding was put at a Kd of 0.000356 nM, the dissociation rate constant (koff) turned out to be 1.22e-05 s⁻¹ and the kon came out at 3.43e+07 M⁻¹ s⁻¹. In assay [1], the “IC50, KLK7 direct functional assay” value was determined as 0.29 nM. In addition, in the assay with human KLK5 [2], the “IC50, KLK5 direct functional assay” value is more than 10 nM. For the same molecule, the “IC50, KLK7 direct functional assay” value in assay [5] stood at 0.29 nM. The “IC50, KLK5 direct functional assay” value with cynomolgus monkey KLK5 [6] is more than 10 nM.

B5: One-armed hu.14H11c.L2H11-hIgG1 knob-in-hole (antibody)
heavy: not shown
VL: B4 VL with Q38K
chain: DKTHTCPPCPAPELLGGPSVFLFPPKPKDTLMISRTPEVTCVVVDVSHEDPEVKFNWYVDGVEVHNAKTKPREEQYGSTYRVVSVLTVLHQDWLNGKEYKCKVSNKALPAPIEKTISKAKGQPREPQVYTLPPSREEMTKNQVSLSCAVKGFYPSDIAVEWESNGQPENNYKTTPPVLDSDGSFFLVSKLTVDKSRWQQGNVFSCSVMHEALHNHYTQKSLSLSPGK
notes: Monovalent one-armed format
In the assay with human KLK7 [8], B5 displayed a Kd of 0.000894 nM, a koff of 2.52e-05 s⁻¹ and a kon of 2.82e+07 M⁻¹ s⁻¹.

B6: hu10C5VY (antibody, V domains shown)
VH: EVQLVESGGGLVQPGGSLRLSCAASGFSLSSYGVTWVRQAPGKGLEWIGYITSVYGVSYYASWAKSRSTISRDTSKNTVYLQMGSLRAEDMAVYYCARENPDYGYAYDAWGQGTTVTVSS
VL: AIRMTQSPSSFSASTGDRVTITCQASESISNELSWYQQKPGKAPKLLIYYASTLASGVPSRFSGSGSGTDFTLTISSLQPEDFATYYCAQGYGSSGVENVFGGGTKVEIK
For B6, the “IC50, KLK7 direct functional assay” value in assay [1] and in assay [5] was more than 10 nM throughout. Besides, the “IC50, KLK5 direct functional assay” value with human KLK5 [2] came to 0.46 nM; with cynomolgus monkey KLK5 [6] it was 0.56 nM.
